{"source": "patent US20210070829A1", "target": "FGFR/β-Klotho receptor complex", "assay": "cell-based or functional assay", "data": [{"substance": "Native FGF21 (from UniProt Q9NSA1 29-209) (ligand)", "values": [{"measurement": "FGF21 activity EC50 (luciferase reporter)", "value": 0.12, "unit": "nM"}]}]}
